Results as given in publication PMC3232166, “Seleno-detergent MAD phasing of leukotriene C4 synthase in complex with dodecyl-β-D-selenomaltoside” (Acta Crystallographica Section F, 2011).

Molecular target: the molecule itself
Assay: crystal structure; LTC4S with SeDDM and GSH, sitting-drop vapour diffusion at 293 K, 0.1 M MES-NaOH pH 6.5, 1.6 M ammonium sulfate, 0.4 M MgCl2; space group F23, Se MAD phasing, refined at 3.2 A

B1: Human leukotriene C4 synthase (enzyme)
chain: MKDEVALLAAVTLLGVLLQAYFSLQVISARRAFRVSPPLTTGPPEFERVYRAQVNCSEYFPLFLATLWVAGIFFHEGAAALCGLVYLFARLRYFQGYARSAQLRLAPLYASARALWLLVALAALGLLAHFLPAALRAALLGRLRTLLPWA
notes: Leukotriene C4 synthase, human; 17 kDa monomer; construct as described previously (Ago et al., 2007; Saino et al., 2011); also called LTC4S
stoichiometry N: 3
